From article PMC3610906

Target: microtubules in LLCPK cells (pig (endogenous in LLCPK)) (UniProt P02550)
Assay: FRAP; living LLCPK cells expressing GFP-tau, 37°C; fluorescence recovery integrated along line scans on single photobleached microtubules; half time from a first-order rate constant (t1/2 = ln2/k)

UniProt P02550, sequence (P02550 whole entry, chain 1 of 2): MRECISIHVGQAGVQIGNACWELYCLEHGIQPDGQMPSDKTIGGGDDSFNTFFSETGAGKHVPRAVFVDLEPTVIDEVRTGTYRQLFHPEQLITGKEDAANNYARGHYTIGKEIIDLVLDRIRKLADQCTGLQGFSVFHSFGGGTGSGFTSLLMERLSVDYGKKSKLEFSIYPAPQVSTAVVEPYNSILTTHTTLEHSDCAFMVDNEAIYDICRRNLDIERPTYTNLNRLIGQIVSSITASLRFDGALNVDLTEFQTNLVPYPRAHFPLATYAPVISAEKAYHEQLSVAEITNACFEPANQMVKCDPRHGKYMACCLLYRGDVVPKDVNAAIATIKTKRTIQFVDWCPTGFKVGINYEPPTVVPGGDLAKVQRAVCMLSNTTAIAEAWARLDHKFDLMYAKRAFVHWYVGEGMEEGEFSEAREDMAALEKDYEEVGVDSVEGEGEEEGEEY
UniProt P02550, sequence (Q767L7 whole entry, chain 2 of 2, further chain): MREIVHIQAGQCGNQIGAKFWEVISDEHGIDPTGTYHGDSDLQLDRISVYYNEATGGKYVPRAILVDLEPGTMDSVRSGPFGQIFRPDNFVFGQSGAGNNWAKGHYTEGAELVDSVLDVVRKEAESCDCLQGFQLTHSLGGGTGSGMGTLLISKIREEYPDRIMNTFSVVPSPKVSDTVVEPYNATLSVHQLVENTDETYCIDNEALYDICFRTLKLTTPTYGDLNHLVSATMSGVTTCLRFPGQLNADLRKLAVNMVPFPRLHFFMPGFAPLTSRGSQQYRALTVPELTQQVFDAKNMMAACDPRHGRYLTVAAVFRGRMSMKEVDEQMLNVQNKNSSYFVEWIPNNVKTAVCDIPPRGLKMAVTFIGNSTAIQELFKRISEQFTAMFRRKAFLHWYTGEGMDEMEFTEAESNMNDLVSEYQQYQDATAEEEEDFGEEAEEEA

half time of fluorescence recovery on microtubules: 6.8 s
Substance: GFP-tau (isoform with three microtubule-binding repeats) (natural protein)
